This note sets out measurements from US20110166062A1 (INDIANA UNIVERSITY RESEARCH AND TECHNOLOGY, published 2011).

For orientation: EC50 means the concentration that produces a half-maximal response. Low readings indicate an effect from little substance, high ones a need for much substance.

Primed or numbered codes have the meaning given here. Where no end group is shown, it is not given here. [ ]: non-standard residue; d: D form. PEG 40 kDa″ = polyethylene glycol of 40 kDa covalently attached to the side chain; Aib = CC(C)(N)C(=O)O

Sequences and labels used below:
T1: GIP receptor (UniProt P48546 22-466)
T1 sequence (looked up): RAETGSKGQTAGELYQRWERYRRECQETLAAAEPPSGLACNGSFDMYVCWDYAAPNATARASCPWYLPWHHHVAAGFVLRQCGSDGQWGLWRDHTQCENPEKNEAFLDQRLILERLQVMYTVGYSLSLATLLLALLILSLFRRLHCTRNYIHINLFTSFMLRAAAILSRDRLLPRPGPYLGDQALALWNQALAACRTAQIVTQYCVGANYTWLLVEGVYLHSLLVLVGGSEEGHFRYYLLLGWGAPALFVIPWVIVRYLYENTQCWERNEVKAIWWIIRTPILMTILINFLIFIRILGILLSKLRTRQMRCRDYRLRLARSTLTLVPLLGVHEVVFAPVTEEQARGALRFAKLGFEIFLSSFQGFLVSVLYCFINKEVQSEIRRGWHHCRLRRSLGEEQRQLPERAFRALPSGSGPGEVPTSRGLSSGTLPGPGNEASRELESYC

B1: mt-255 (peptide)
peptide: Y[Aib]QGTFTSDYSIYLDKQAA[Aib]EFVNWLLAGGPSSGAPPPSC(PEG 40 kDa″)-NH2
B2: mt-252 (peptide)
peptide: Y[Aib]QGTFTSDYSIYLDKQAA[Aib]EFVNWLLAGGPSSGAPPPSC-NH2
modifications: N-terminus assumed
SMILES: CC[C@H](C)[C@H](NC(=O)[C@H](CO)NC(=O)[C@H](Cc1ccc(O)cc1)NC(=O)[C@H](CC(=O)O)NC(=O)[C@H](CO)NC(=O)[C@@H](NC(=O)[C@H](Cc1ccccc1)NC(=O)[C@@H](NC(=O)CNC(=O)[C@H](CCC(N)=O)NC(=O)C(C)(C)NC(=O)[C@@H](N)Cc1ccc(O)cc1)[C@@H](C)O)[C@@H](C)O)C(=O)N[C@@H](Cc1ccc(O)cc1)C(=O)N[C@@H](CC(C)C)C(=O)N[C@@H](CC(=O)O)C(=O)N[C@@H](CCCCN)C(=O)N[C@@H](CCC(N)=O)C(=O)N[C@@H](C)C(=O)N[C@@H](C)C(=O)NC(C)(C)C(=O)N[C@@H](CCC(=O)O)C(=O)N[C@@H](Cc1ccccc1)C(=O)N[C@H](C(=O)N[C@@H](CC(N)=O)C(=O)N[C@@H](Cc1c[nH]c2ccccc12)C(=O)N[C@@H](CC(C)C)C(=O)N[C@@H](CC(C)C)C(=O)N[C@@H](C)C(=O)NCC(=O)NCC(=O)N1CCC[C@H]1C(=O)N[C@@H](CO)C(=O)N[C@@H](CO)C(=O)NCC(=O)N[C@@H](C)C(=O)N1CCC[C@H]1C(=O)N1CCC[C@H]1C(=O)N1CCC[C@H]1C(=O)N[C@@H](CO)C(=O)N[C@@H](CS)C(N)=O)C(C)C
B3: mt-250 (peptide)
peptide: Y[Aib]QGTFTSDYSIYLD[Aib]QAA[Aib]EFVNWLLAGGPSSGAPPPSC-NH2
modifications: N-terminus assumed
SMILES: CC[C@H](C)[C@H](NC(=O)[C@H](CO)NC(=O)[C@H](Cc1ccc(O)cc1)NC(=O)[C@H](CC(=O)O)NC(=O)[C@H](CO)NC(=O)[C@@H](NC(=O)[C@H](Cc1ccccc1)NC(=O)[C@@H](NC(=O)CNC(=O)[C@H](CCC(N)=O)NC(=O)C(C)(C)NC(=O)[C@@H](N)Cc1ccc(O)cc1)[C@@H](C)O)[C@@H](C)O)C(=O)N[C@@H](Cc1ccc(O)cc1)C(=O)N[C@@H](CC(C)C)C(=O)N[C@@H](CC(=O)O)C(=O)NC(C)(C)C(=O)N[C@@H](CCC(N)=O)C(=O)N[C@@H](C)C(=O)N[C@@H](C)C(=O)NC(C)(C)C(=O)N[C@@H](CCC(=O)O)C(=O)N[C@@H](Cc1ccccc1)C(=O)N[C@H](C(=O)N[C@@H](CC(N)=O)C(=O)N[C@@H](Cc1c[nH]c2ccccc12)C(=O)N[C@@H](CC(C)C)C(=O)N[C@@H](CC(C)C)C(=O)N[C@@H](C)C(=O)NCC(=O)NCC(=O)N1CCC[C@H]1C(=O)N[C@@H](CO)C(=O)N[C@@H](CO)C(=O)NCC(=O)N[C@@H](C)C(=O)N1CCC[C@H]1C(=O)N1CCC[C@H]1C(=O)N1CCC[C@H]1C(=O)N[C@@H](CO)C(=O)N[C@@H](CS)C(N)=O)C(C)C
B4: mt-258 (peptide)
peptide: Y[Aib]QGTFTSDYSIYLDEQAA[Aib]EFVCWLLAG-NH2
modifications: N-terminus assumed
SMILES: CC[C@H](C)[C@H](NC(=O)[C@H](CO)NC(=O)[C@H](Cc1ccc(O)cc1)NC(=O)[C@H](CC(=O)O)NC(=O)[C@H](CO)NC(=O)[C@@H](NC(=O)[C@H](Cc1ccccc1)NC(=O)[C@@H](NC(=O)CNC(=O)[C@H](CCC(N)=O)NC(=O)C(C)(C)NC(=O)[C@@H](N)Cc1ccc(O)cc1)[C@@H](C)O)[C@@H](C)O)C(=O)N[C@@H](Cc1ccc(O)cc1)C(=O)N[C@@H](CC(C)C)C(=O)N[C@@H](CC(=O)O)C(=O)N[C@@H](CCC(=O)O)C(=O)N[C@@H](CCC(N)=O)C(=O)N[C@@H](C)C(=O)N[C@@H](C)C(=O)NC(C)(C)C(=O)N[C@@H](CCC(=O)O)C(=O)N[C@@H](Cc1ccccc1)C(=O)N[C@H](C(=O)N[C@@H](CS)C(=O)N[C@@H](Cc1c[nH]c2ccccc12)C(=O)N[C@@H](CC(C)C)C(=O)N[C@@H](CC(C)C)C(=O)N[C@@H](C)C(=O)NCC(N)=O)C(C)C
B5: mt-251 (peptide)
peptide: Y[Aib]QGTFTSDYSIYLDEQAA[Aib]EFVNWLLAGGPSSGAPPPSC-NH2
modifications: N-terminus assumed
SMILES: CC[C@H](C)[C@H](NC(=O)[C@H](CO)NC(=O)[C@H](Cc1ccc(O)cc1)NC(=O)[C@H](CC(=O)O)NC(=O)[C@H](CO)NC(=O)[C@@H](NC(=O)[C@H](Cc1ccccc1)NC(=O)[C@@H](NC(=O)CNC(=O)[C@H](CCC(N)=O)NC(=O)C(C)(C)NC(=O)[C@@H](N)Cc1ccc(O)cc1)[C@@H](C)O)[C@@H](C)O)C(=O)N[C@@H](Cc1ccc(O)cc1)C(=O)N[C@@H](CC(C)C)C(=O)N[C@@H](CC(=O)O)C(=O)N[C@@H](CCC(=O)O)C(=O)N[C@@H](CCC(N)=O)C(=O)N[C@@H](C)C(=O)N[C@@H](C)C(=O)NC(C)(C)C(=O)N[C@@H](CCC(=O)O)C(=O)N[C@@H](Cc1ccccc1)C(=O)N[C@H](C(=O)N[C@@H](CC(N)=O)C(=O)N[C@@H](Cc1c[nH]c2ccccc12)C(=O)N[C@@H](CC(C)C)C(=O)N[C@@H](CC(C)C)C(=O)N[C@@H](C)C(=O)NCC(=O)NCC(=O)N1CCC[C@H]1C(=O)N[C@@H](CO)C(=O)N[C@@H](CO)C(=O)NCC(=O)N[C@@H](C)C(=O)N1CCC[C@H]1C(=O)N1CCC[C@H]1C(=O)N1CCC[C@H]1C(=O)N[C@@H](CO)C(=O)N[C@@H](CS)C(N)=O)C(C)C

One assay deals with glucagon receptor (UniProt P47871 26-477, limits assumed). The experiment in a line: cell-based or functional assay.
Chain of glucagon receptor (P47871 26-477 limits assumed): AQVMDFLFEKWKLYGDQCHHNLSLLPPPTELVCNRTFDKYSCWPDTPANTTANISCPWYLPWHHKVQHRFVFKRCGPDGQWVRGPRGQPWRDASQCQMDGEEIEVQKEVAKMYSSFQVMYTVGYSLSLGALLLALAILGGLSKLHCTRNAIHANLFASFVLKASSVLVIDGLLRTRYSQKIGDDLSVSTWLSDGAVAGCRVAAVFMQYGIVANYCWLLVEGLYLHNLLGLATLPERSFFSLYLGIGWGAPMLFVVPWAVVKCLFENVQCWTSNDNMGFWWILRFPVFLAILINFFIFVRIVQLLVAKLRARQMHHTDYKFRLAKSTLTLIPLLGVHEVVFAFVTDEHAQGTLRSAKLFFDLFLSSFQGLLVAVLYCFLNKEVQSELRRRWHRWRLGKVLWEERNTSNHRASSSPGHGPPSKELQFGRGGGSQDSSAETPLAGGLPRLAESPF
Turning to B1, the “EC50” value was 5.46 nM and the relative activity worked out at 2.45%.

As to B2, the “EC50” value amounted to 0.319 nM and the relative activity was 13.2%.

Regarding B3, a half-maximal response (EC50) required 0.667 nM and the relative activity was determined as 6.3%.

B4: the “EC50” value was 0.487 nM and the relative activity is 14.1%.

In the case of B5, the concentration for a half-maximal effect (EC50) came to 2.76 nM and the relative activity stood at 1.52%.

The target of the next assay is GLP-1 receptor (UniProt P43220 24-463, limits assumed). The experiment in a line: cell-based or functional assay.
Turning to B1, the “EC50” value is 0.018 nM and the relative activity is 117%.

With B2, the concentration giving a half-maximal response (EC50) was determined as 0.018 nM and the relative activity came out at 117%.

Turning to B3, the “EC50” value worked out at 0.033 nM and the relative activity was 63.6%.

Consider B4, for which the “EC50” value came to 0.0202 nM and the relative activity came to 58.9%.

In the case of B5, a half-maximal response (EC50) required 0.015 nM and the relative activity is 140%.

The next assay deals with T1, GIP receptor. The experiment in a line: cell-based or functional assay.
B1: the 50% effective concentration (EC50) is 0.013 nM and the relative activity stood at 146%.

Turning to B2, the concentration giving a half-maximal response (EC50) worked out at 0.013 nM and the relative activity is 146%.

Regarding B3, the “EC50” value turned out to be 0.062 nM and the relative activity was found to be 30.6%.

For the molecule B4, the half-maximal effective concentration (EC50) worked out at 0.057 nM and the relative activity amounted to 16.8%.

Turning to B5, it took 0.033 nM to reach a half-maximal effect (EC50) and the relative activity was 57.6%.
